The results in this text go back to paper PMC11560936.

Assay in all cases: ITC
For orientation: In ITC the heat of successive injections is recorded.

Test [1] has as its target Penaeus monodon Rab7 wild type (PmRab7-WT) (Penaeus monodon) (UniProt Q00P14).
Test [2] has the same target. This is another data set of the same source.
For test [3] the target is unchanged. This is another data set of the same source.
The target in test [4] is Penaeus monodon Rab7 L129F mutant (PmRab7-L129F) (Penaeus monodon) (UniProt Q00P14).
Test [5] addresses Penaeus monodon Rab7 Q67L mutant (PmRab7-Q67L) (Penaeus monodon) (UniProt Q00P14).
For test [6], the target named is Penaeus monodon Rab7 T22N mutant (PmRab7-T22N) (Penaeus monodon) (UniProt Q00P14).
Test [7] has as its target Penaeus monodon Rab7 wild type (PmRab7-WT) (Penaeus monodon) (UniProt Q00P14). The source holds these as a separate data set.
Test [8] has the same target. The source holds these as a separate data set.

Read-outs that look alike come from different tables or passages of the source.

For the substance “White spot syndrome virus envelope protein VP28 with His6 tag (VP28-His6) (natural protein)”, the Kd in test [1] was found to be 352 nM; in test [2] it was 1920 nM; in test [3], 826 nM; in test [4], 128 nM; in test [5], 1990 nM; in test [6], 334 nM. Also, the Kd is 22.5 nM in test [7] and 924 nM in test [8]. In addition, the dH is -7.23 kcal/mol in test [1]; -20.2 kcal/mol in test [2]; -17 kcal/mol in test [3]; -25.7 kcal/mol in test [4]; -33 kcal/mol in test [5]; -20 kcal/mol in test [6]. The values for the dH in test [7] and in test [8] were -22.1 kcal/mol and -15.4 kcal/mol, respectively. In addition, the stoichiometry N in test [1] was 0.682 VP28:Rab7; in test [2], 0.703 VP28:Rab7; in test [3], 0.738 VP28:Rab7; in test [4], 0.519 VP28:Rab7; in test [5], 0.582 VP28:Rab7; in test [6], 0.625 VP28:Rab7. Further, the stoichiometry N in test [7] was 0.543 VP28:Rab7; in test [8] it was 0.795 VP28:Rab7.

What is called Kd is the free concentration of one partner at which half of the binding sites on the other are occupied at equilibrium, for simple one-to-one binding. As usually defined, the stoichiometry N is a count of units in the complex or per binding partner.
